Measurements: a protein production outcome set (Wang et al. 2014)

Test: label from the status in PepcDB records
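Also: failed if final PepcDB status was selected cloned or expressed and not failed if soluble or beyond.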

## MTFEDPSFWAALLTAATTAGAITILVALVRRNQAKGPDRRAREDAEIFLGLSDGLIVLDDGGRVSALNRAAQRMTGQEGEAAVGKSARRLLPGLESVLEGKDRLASSLGLWCRLPATGREEALASTLGALLSETTGPAGTRTVLVLRDISEQIRLTEVDDWLRVIDGHLLAGTSLGDLANDLCERVARAFGLPLLWIGVPRPEGLLVVGKGGSEAARLSAYPEGRGDEGTQGVAGRTLRSGRAQSDDAGEGWAAPTWAPGVPLGRAYCVGLRARGEVVAVLCLRGHGEAPSPALSRALEALGPRLGEAIVYERGQSLMRLQSAAIAAAANAIVITDGEGRVEWVNEAYHLLSGYERDQIIGTLPAVLAGPSAANPTAIEAWPTLRAGQVWRGEIHETHRDGRTYIVDKTITPIVDASGRLSHLVAVDEDVTARKKAEERIRYLSNYDTLTRLPNRVLFRDRLYQAVVQARRGHGGLAVMFIDLDQFSLVNDTLGHAAGDHLLMTIASRINAAAEEADTVARVGGDEFALIQTALTSADSAASLARRLIDVIRTPVDLGGREVVIGANVGIAIYPQDGTDPDNLMKNADMAMYRAVKSGDDSCCFFSNEMNAEAAVRLSLEEDLRRALDSGDQLFLHYQLQFCIESGRPVGAEALARWTHPTLGAIPPTRFIPVAEDSGLILALGDWVLGTALAEYARWRAAGCGRLTIAVNMSAVQFRQKGLVERVTDLLAQHGVPPEDLELELTESMLMQDADQAVAQLTALSQAGIRLSIDDFGTGYSSLGYLKLFRVDKLKVDQSFVRDVTEDGNDAVIARAIINLGHSLGLEVIAEGVETPEQMAYLRREGCDVVQGYLMAYPEPGETVARRLLALDALSAAPAAVVMSRSD
  protein production: failed

## MTPIAQRDGQAIQLVGFDGDDTLWKSEDYYRTAEADFEAILSGYLDLGDSRMQQHLLAVERRNLKIFGYGAKGMTLSMIETAIELTEARIEARDIQRIVEIGRATLQHPVEVIAGVREAVAAIAADYAVVLITKGDLFHQEQKIEQSGLSDLFPRIEVVSEKDPQTYARVLSEFDLPAERFVMIGNSLRSDVEPVLAIGGWGIYTPYAVTWAHEQDHGVAADEPRLREVPDPSGWPAAVRALDAQAGRQQ
  protein production: not failed

## MSLRIDPLGGESLKNQEVKGKKSGKTSRVGESKKKEFFDILEDVKEDHFEKLLEEAVEEVIDSGNELVRSPTPSNLKRYKNAIKEFLKLIEKKIYKLAGSFDMNSGRARLHLVVEEVNEKLMDLTEKIMKNEWQTINLAARIEEINGLILNLYREGHHHHHH
  protein production: not failed

## MDGLFEFCQLSTGGSVAGAVKLNRQQTDMAVNWAGGLHHAKKYEASGFCYVNDIVLAILELLKYHQRVLYIDIDIHHGDGVEEAFYTTDRVMTVSFHKYGEYFPGTGDLRDIGAGKGKYYAVNFPMCDGIDDESYGQIFKPIISKVMEMYQPSAVVLQCGADSLSGDRLGCFNLTVKGHAKCVEVVKTFNLPLLMLGGGGYTIRNVARCWTYETAVALDCEIPNELPYNDYFEYFGPDFKLHISPSNMTNQNTPEYMEKIKQRLFENLRMLPHAPGVQMQAIPEDAVHEDSGDEDGEDPDKRISIRASDKRIACDLEHHHHHH
  protein production: not failed

## MMNTITNIVSYLPYLFAWFLLGYMGIVVLVYTGMLLLSVVQLKREQKLNKQEVYDDYLELTYTKPVSILVPAYNEETGIIETVRSLLSLKYPQTEIVVVNDGSTDQTLEVIIEHFQMVKVGKVIRKQIETEPIKGVYQSTIFPHLLLVDKSNGGKADALNAGLNVSKYPYFCSIDGDSILETDALLKVMKPIVTSRDDEDEVIASGGNVRIANGSDIQMGSVLSVQLAKNPLVVMQVIEYLRAFLMGRIGLSRHNMVLIISGAFSVFAKKWVMEAGGYSKKTVGEDMELVVRLHRLVKEKRLKKRITFVPDPVCWTEAPATFRVLQRQRSRWHRGLMESLWLHRGMTFNPKYGLVGTASIPYFWIVEFFGPVVELMGYLYIVFAFFFGGLYVEFALALFLLFVLYGTVFSMTAVILEGWSLKRYPKVSDMSRLMIFSLFEALWYRPLTVLWRFGAIIEALFRSKAWGEMTRKGLTKAEQKAS
  protein production: failed

## MSLRAKLIWPILVFITAIFVASKGYTSYTAYQSSKHELVEQTRKLINNVSYSIKDALTTKNKRKAQTILADLIEQPNVSRVKLYDRANELFVLLEGSGESAPVPNQNERSKLDALGYALSAKFLYVLEPIIHEGHVIGSIRVTLSYIPIINAQHSFLKDAGVLLLILAAGGIIFYITIDRIILRPLLDLNGAIQDVTFGNASHVQIRHHSKDELGEVIHAFNRMMTKLRKREKQRQHSLATLEQKRAFSEEVIESIQYALVITDNLGTIIHSNAATQHIFQKTPEALENANIRDLIKTKMPNELSQILSRCLECDDIHLQNIDNEQQLSLTTRRLSNHGYLLFAIQDITEIEEAMNRQRVAGRVFEASQDGLIVLNHKGVITMVNPAVTKLVGLEIDQLVGQSFIQTIRWRKLQEMMPSIIESIENYGVWQGEVIEQNHLGLLVPMFARVNRIVKCENNGFYDLVIILTDLSNAKEMERLEYLAHHDALTGLANRSKFHLELEDLVQRSGYQRDEFAVLYLDLDGFKEINDTYGHDAGDEVLKRVADRLTSATRHSDLIARLSGDEFVMLVNPANQKVVTRIAEQLLESICAPIEYKGNELKVGVSIGVKLVGVNERDATRILKSADTAMYQAKKAGKGQAILMGCELQETV
  protein production: failed

## MGHHHHHHSHMKALLSIEMDMQVPFHDVDSMGITWHGNYLRYFEVARCKLLDELGYNYRQMRASNYAWPIIDVQIKYVKPSTFEQHITVRAELVEWENRLKINYQIRDTATGERITKGYTIQAAVDMTSQEMCFVTPEVFRSKIAPLLAKVDNE
  protein production: not failed

## MVRLIKTETVISVLMGHFIKKLLFILLFVGVLIAPANAQNEKNMYSYKKIGNKYIVSINNHTEIVKALNAFCKEKGILSGSINGIGAIGELTLRFFNPKTKAYDDKTFREQMEISNLTGNISSMNEQVYLHLHITVGRSDYSALAGHLLSAIQNGAGEFVVEDYSERISRTYNPDLGLNIYDFERLEHHHHHH
  protein production: failed

## MTDNTAVRRRYEKSFTERPGFTEDEIEEIREAFNLLDTDGTGTIDPKEIKCAMQSLGLDAKNPMIFRMIADLEKDGYSSIDFEEFMEVITSKLGNKDTREGIQRIFNLFDDDKTGSISLKNLKRVAKELGETLTDEELRDMIDRADSKGEGEISFEDFYTIMTKKSFL
  protein production: failed

## PNARSQPSKTLFVKGLSEDTTEETLKESFDGSVRARIVTDRETGSSKGFGFVDFNSEEDAKAAKEAMEDGEIDGNKVTLDWAKPKGEGG
  protein production: not failed

## MKSILEQLSSMTVVVADTGDLDSIKKFQPRDATTNPSLILAAAKNPDYVKLIDKAIESSENTLPNGFSEIELIKETVDQVSVFFGKEILKIISGRVSTEVDARLSFDTEATVKKARKLINLYKNFGIEKERILIKIAATWEGIKAAEILEKEGIKCNLTLLFNFCQAVTCANANITLISPFVGRILDWHKAKTGKTSFIGAEDPGVISVTQIYKYFKEKGFKTEVMGASFRNLDEIKELAGCDLLTIAPKFLEELKREKGVLIRKLDASTKINNSIDYKFEEKDFRLSMLEDQMASEKLSEGITGFSKAIEELEELLIERLSEMKNHKLISAN
  protein production: not failed

## MSVSPVQPDPSVIGGVPKAPFVLKPNLARLFNDRASRFEALAQGSHLAPYLNFLAGITRIQSELVSALPPPEPVPADRVERARANAMPPIDRAAMGGSPDCREVLQQFFEKAEALEKPAAAAEALAQVRTADEEMLTWMIGNVMADDLPVESLAHHLYVAAAMQIQAARLAAGLDGSRLVPIRVGVCPACGGRPVASMVIGFHGAEGARYASCSCCATMWNEVRVKCLACGSTKGIGYQAVETGDEEATVKAEVCDTCNSWMKILYQNKNPSLDVVADDVASLGLDLLMKDTEYKRAGFDPFLMGY
  protein production: not failed

## ERIRYESQIKRFNRIMDTTMENIPAGIVVKDIENDFRYIYRNRESYNRDISSENAIGMNDFDYYPPEMAQQKRKEDMEIAATGKGMHWIMEGKDKNGNLLILDKQKIMVESEDFSPIIVSIEWDIT
  protein production: failed

## MLEAEVVALKDLIEVAGAVVSTLDLDTVLRHILTSAMRFAETPAGSIALYDGYRNDLTLHAHEGLTPEFVKTERWSVQPGGLTEQVLTRGEILFVNDTADTSFFHNPTALNEGIRSLICVPLMMQNRIVGILYLDDFVPRDFDKERMKLLSVLASFAAMAIDNAQLHARTRLMAITDSLTGLYNHRYFQQIFSRELNRAKRYEKPLAIIMLDVDDFKRFNDTYGHPHGDKVLAAMGDFLGEALRSSDFAFRYGGEEFIVLLPETEFDSALQVAERLRELVERRSLDVLKGLAPQGVTVSVGVASFPRDGESRGDMLKRVDDLLYRAKEFGKNRVYSRREDEP
  protein production: failed

## MLACAIALRLAAAVAAPVDSPTVDVAPPAPAEVAPPGPGRTAAPDLSAPPPPPADRPGPWRVYGAAAAGAAASDVLFAGIFAIGMVQLFGDLWDGEASADAGGLTLALVGLGGFLAVTPAVTVWAAQRVAGRERTAAAYWACFGVRLLGFAAANAFPAATLATELVLAPWVVSRIVMSGAPAATPLRPEVPAPAGADGPATRARPLRDPALAWR
  protein production: failed

## MRVFPVYAPKLIVKHARIFLTGVIWVKDLGRLEFEKGRFLLPRKSLPKVKQAILELNELIEAQNHQTKTALEHHHHHH
  protein production: not failed

## MTILTRYIAGAYLKILGLCLASFVAIYLVIDFLEKIGRLLRFQPRWIDIIQYFICKLPEIITQVIPLAVLMSTLLTLGMLSRNSEIVAMRGCGVGLGRISAPLIVIAAAVSLLTIFSNEFVLPSSYRQMRYVDQVLIRKQGTNTFFRQNNIWHKDESAIMMARVFDPGRQALRGITLWRFSDGMRPVSRIDAAEGTWDGARWTFKTVTVRGLAGPSVETRTLASLPAELNLKIEDLKVVDKYADNMGFFKLRDYVRKLKAGGYDTTRYEAQMHSKISLPFASLIMAFLGIPFALRGGRSSGVALGITASIGIGFAYFITNSILISFGQTGILPPLISAWAANVLFALSGIWLAMTLDR
  protein production: failed

## DKEWNEKELQKLHCAFASLPKHKPGFWSEVAAAVGSRSPEECQRKYMENPRGKGSQKHVT
  protein production: not failed

## MKILYIVLDGAADSPTSPRKTLEEASKPNIDSLGSHAVCGMVYTVKPGVAPQSDYATLSLLGYNPDEYYPGRGPLEAFGAGIEMRRGDIALRANFATVDPGTLRIIDRRVGRSLTSREARELASAVDGMELEDGEGTALFRATIGHRGVLVLRHRSKPLSDAISNTDPAYERRGRFSVALEKYEPFIKLSNPLVEDEAAVLAARMLNEFTLKAVEILDSHPVNLAREKRGLLKANAILSRDAGGLPEEKPPSFQERFGLRGASIVEMVVERGISRYIGLDDIRVEIEGRAREEVYREEAARAVEALETHDLVYVHLKGPDEPGHDGSFEGKIRAVEDIDKHFFAPLLDRLSSAGLEPAFVVTSDHATPWDVGAHSGDPVPLMISHQSIQGSIGKFSETVCLRGRLGTIIGGYRIIPKTLSLLAG
  protein production: not failed

## MASMDVEEFIGQNRQLADRVEAFRGFSESDKHWKGRREFIFRNMADFPEPQVDHLLALSMVWQNHVFMGCRYSSELLQRVMEMAEGIEVEDAPVFKTRDEIIRQQKQR
  protein production: failed

## MTIKSLLSDIEREERNVHKAIKDSVKRNDLVTAKALAREIVSSRRTVKRLYENKAQVNSISMHLGESIATAVTVGNLSKSGEVMKLVNSLMKAPEIAVTMQAFSKEMTKTGVIEEFVSDAVDNALDSEDIEEEIEEEVDKVLTAIAGETAAELPEAVRKQKMNVPAQKAETLHGEDAIVEGVDAEEELEAIRYRLANVRS
  protein production: failed

## MRDEAGSRGIVMQNASANALVPREAARAAPMADIQKIAQHMARLNVAALPRNYELFHEAIIGLNAGLAQDIAALGSQPQQPMLDELGLKYRLAGHCGLAGETSRNEASRMLRDVAERLAEGLRHKNAFARACGTILKSVSGQNDQSLAAFLSEIDYLTASLSTVLAAEMEIGAKLQDDIKTLETLERGISAMQSAAIADRITGLPNRIALNRTIADLYERQEGAAGSALIMVDIDNFTDLNDKYGTQAGNKLLKKLAGLLQKSIKKNDFVARTEGDEFALLFSNVGMQDAIAIAERLRASVEDNLVFATSDKTDRGRLTISIGVALSTDAATPGQLQANARVALLAAQSNPRLPVQAFGR
  protein production: failed
